Experimental data: US20090060924A1 (Eli Lilly, published 2009)

T1: rat sclerostin (rat, UniProt Q99P67 24-213, limits assumed)
T1 sequence (looked up): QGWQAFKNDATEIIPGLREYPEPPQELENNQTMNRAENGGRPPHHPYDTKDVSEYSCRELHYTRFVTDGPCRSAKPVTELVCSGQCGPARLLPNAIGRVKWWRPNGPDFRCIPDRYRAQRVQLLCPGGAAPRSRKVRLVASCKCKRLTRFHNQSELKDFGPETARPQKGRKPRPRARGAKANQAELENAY

T2: human sclerostin (human, UniProt Q9BQB4 24-213)
T2 sequence: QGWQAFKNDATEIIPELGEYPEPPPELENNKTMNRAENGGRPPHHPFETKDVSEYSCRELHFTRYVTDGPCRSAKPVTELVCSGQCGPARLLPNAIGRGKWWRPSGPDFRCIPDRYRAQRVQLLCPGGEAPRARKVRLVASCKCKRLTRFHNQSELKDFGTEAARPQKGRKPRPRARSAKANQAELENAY


How the values were obtained:
[1] = molecular target: T3, cynomologous monkey sclerostin (cynomologous monkey); assay: cell-based or functional assay
[2] = molecular target: T3, cynomologous monkey sclerostin; assay: KinExA 3000 equilibrium binding in solution, 25 C, 1:1 model
Method: (§1) Equilibrium binding studies between an anti-sclerostin antibody and either human, cynomologous (“cyno”) monkey or rat sclerostin are performed on a KinExA 3000 instrument (Sapidyne Instruments Inc.) under KD-controlled conditions. With this technique, a fixed concentration of antibody below its KD is mixed with various concentration of sclerostin protein and allowed to come to equilibrium. The fraction of free, unbound, antibody remaining in solution is probed by briefly exposing this equibrated mixture to sclerostin-coated beads followed by detection with a fluorescently labeled secondary antibody. Typically 2 μM of an anti-sclerostin antibody to be tested is mixed with varying concentrations of human, cyno, or rat sclerostin starting at 2-50 nM and doing three-fold serial dilutions in binding buffer (1× phosphate buffered saline solution, pH 7.4, 0.02% sodium azide and 1 mg/mL bovine serum albumin) containing 2 pM of the antibody to be tested. These solutions are allowed to reach equilibrium over two days at 25° C. The amount of unbound antibody is probed using human sclerostin-coated azlactone beads (Sapidyne Instruments Inc.). These beads are prepared by reacting 50 mg of dry azlactone beads with 50 mcg/ml human sclerostin in a 50 mM sodium carbonate buffer at pH 9.0-9.6 with overnight rotation. Beads are then allowed to settle and the supernatant is replaced with blocking solution (1 M Tris, pH 8.0, plus 10 mg/mL bovine serum albumin) and rotated for one hour. This bead stock is diluted 20-fold into binding buffer and used within three days. A KinExA 3000 instrument equilibrated at room temperature (ca 25° C.) is used for binding studies. Typically 6.25 mL of the equilibrated antibody/sclerostin solution are drawn over a packed human sclerostin-azlactone bead column at 0.25 mL/minute flow rate then rinsed with running buffer (1× phosphate buffered saline solution, pH 7.4 with 0.02% sodium azide). The fraction of free anti-sclerostin antibody bound to these beads is quantified by measuring fluorescence resulting from an injected labeled secondary antibody (Cy5-labeled goat anti-human Fab′2 antibody). Two replicate samples for each condition are analyzed and KD is determined by fitting data to a 1:1 binding model using KinExA Pro software.

rat sclerostin = molecular target: T1, rat sclerostin; assay: as above
Method: as §1

human sclerostin [3] = molecular target: T2, human sclerostin; assay: cell-based or functional assay
human sclerostin [4] = molecular target: T2, human sclerostin; assay: KinExA 3000 equilibrium binding in solution, 25 C, 1:1 model
Method: as §1

| IC50 (nM), bone specific alkaline phosphatase assay in C2C12 cells, using cyno sclerostin [1] [nM] | Kd [2] [pM] | Kd (rat sclerostin) [pM] | IC50 (nM), bone specific alkaline phosphatase assay in C2C12 cells, using human sclerostin (human sclerostin [3]) [nM] | Kd (human sclerostin [4]) [pM] | Binder |
| --- | --- | --- | --- | --- | --- |
| 23.7 | 75 | 2.2 | – | – | humanized anti-sclerostin monoclonal antibody 88 (antibody, human IgG4 S228P, kappa, V domains shown, Full-length humanized antibody; Derived from chimeric parent 788) VH: QVQLVQSGAEVKKPGASVKVSCKVSGFPIKDTFQHWVRQAPGKGLEWMGWSDPEIGDTEYASKFQGRVTMTEDTSTDTAYMELSSLRSEDTAVYYCATGDTTYKFDFWGQGTTVTVSS VL: DIQMTQSPSSLSASVGDRVTITCKASQDVHTAVAWYQQKPGKAPKLLIYWASTRWTGVPSRFSGSGSGTDFTLTISSLQPEDFATYYCQQYSDYPWTFGGGTKVEIKR |
| 34.4 | 1.4 | 0.4 | 25.1 | 0.3 | humanized anti-sclerostin monoclonal antibody 89 (antibody, human IgG4 S228P, kappa, V domains shown, Full-length humanized antibody; Derived from chimeric parent 789) VH: EVQLVQSGAEVKKPGESLKISCKGSDFEIKDYYIHWVRQMPGKGLEWMGQIDAEDGETEYAPRFQGQVTISADKSISTAYLQWSSLKASDTAMYYCAREGYYYDGRDYWYFDVWGQGTTVTVSS VL: EIVLTQSPATLSLSPGERATLSCSASSSVSYIHWYQQKPGQAPRLLIYSTSELASGIPARFSGSGSGTDFTLTISSLEPEDFAVYYCQQLSHLPLTFGGGTKVEIKR |
| 31.6 | 1 | 0.1 | 25.5 | 0.6 | humanized anti-sclerostin monoclonal antibody 86 (antibody, human IgG4 S228P, kappa, V domains shown, Full-length humanized antibody; Two heavy and two light chains per claim 3) VH: QVQLVQSGAEVKKPGSSVKVSCKASGYTFTDYFLNWVRQAPGQGLEWMGTIYPYHDGTTYSQKFKGRVTITADKSTSTAYMELSSLRSEDTAVYYCAREEEDGQFDYWGQGTTVTVSS VL: DIQMTQSPSSLSASVGDRVTITCSASQGIQWYLNWYQQKPGKAPKLLIYYTSSLHSGVPSRFSGSGSGTDFTLTISSLQPEDFATYYCQQHSKLPRTFGGGTKVEIKR |
